According to the supplement of paper PMC12042874:
± gives the uncertainty stated by the source.

Experiment: amyloid nucleation score (Sup35N fusion, yeast selection) (log enrichment); library NNK2; higher = more nucleation; inactive = no reads after selection
Summary of the method: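 The nucleation score, computed with DiMSum, is the log enrichment of output over input reads, centred on the mode score of non-aggregating sequences. Sequences with under 100 input reads were dropped. Reads were generated by Illumina sequencing of plasmid inserts from psi-negative yeast with Sup35N fused to peptides of 20 random codons, induced with 100 μM copper sulfate for 24 hours and grown 7 days at 30°C on medium lacking adenine and uracil.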

Row | Substance | amyloid nucleation score
1 | NHRKVLMVVVLAVHNMGCCI | 3.75 ± 0.15
2 | VTLMSV | 0.504 ± 0.74
3 | GGNLGRPEKALSRRCCVDYL | inactive
4 | MSGVSAVLRDLFKYVELIIR | inactive
5 | GCKNR | 0.226 ± 0.51
6 | YPISLWLFYGGSGAQTLVVR | 2.51 ± 0.1
7 | DGFRTYIVRWEATVANSLVV | 0.736 ± 0.52
8 | IDLFFAYSHRV | 4.501 ± 0.044
9 | RWTWNSEVRNLRIFASYPGC | -0.418 ± 1.1
10 | MIMHNVANDWTVFYFLCRVV | -0.723 ± 0.55
11 | WCGYMNSSIKSRYSTYTFRS | 2.13 ± 0.088
12 | PTAVNSTMYSMYRTGNL | -0.294 ± 0.34
13 | YSASQTWCKQPIDCFIRGQN | -0.605 ± 0.41
14 | MVLNIDCFCDFYLALSCMSI | 5.58 ± 0.079
15 | TVYPCMYGGLGHRERHLSMS | 5.06 ± 0.063
16 | IRTLMYISHSAGGYLL | -0.576 ± 0.44
17 | WHGVDVIVRLMVAHPLGRTS | 4.36 ± 0.11
18 | ENKILMGAWEVFWTYSEHPW | inactive
19 | ILYMTDKLDQSSCLGLMSSH | -1.81 ± 0.78
20 | WLYSIVCCDRKQSRSGMCDL | 4.96 ± 0.069
21 | FLSCQTYRKNQADNADASSI | -0.076 ± 0.56
22 | RFNMMKSKQMELSN | -0.504 ± 0.46

Row | Substance | amyloid nucleation score
23 | MNIYEVSKYENGY | 3 ± 0.071
24 | SIRARGLAMRSYSPT | -0.093 ± 0.55
25 | LPGCTTRLHVNLIGALECCK | 0.077 ± 0.35
26 | SLKRKGLVHTPCIFRVRCLT | 0.554 ± 0.81
27 | VGSLYICDLAPGKHKYCSVV | 0.266 ± 0.56
28 | VAWLW | 0.909 ± 0.21
29 | YLASFVFGIVNTYSAVALS | 0.552 ± 0.66
30 | REFLCCGN | 3.36 ± 0.075
31 | YTNTKKVLLVSVNVPRFLPV | 1.99 ± 0.17
32 | KLHRSESVHVICTVCS | 1.17 ± 0.3
33 | FANGRFMNPSHGLYSLPLKR | 0.09 ± 0.51
34 | IARFSKKTSVSMGTRCAT | 0.122 ± 0.3
35 | IGSWVVEFGRFGYCFHGVID | 3.19 ± 0.089
36 | VHVVSRAQTCEFF | 0.956 ± 0.67
37 | RVGACRMVRHYVGTWVQQLL | 0.246 ± 1.1
38 | GDNYIS | 0.782 ± 0.41
39 | PIFSSKLSGRGR | -0.059 ± 0.55
40 | FCDVQDFAVLSGVELLNLSY | -0.751 ± 0.39
41 | SKYKRLYVGTNDIIQLDWSN | 3.16 ± 0.068
42 | AFVNVVGLVYSF | -1.42 ± 0.45
43 | RMRFYWWDVSMLYTCSYSDF | 1.04 ± 0.11
44 | HLTVFVDLSVRLRQMYRRYS | 5.56 ± 0.069

Row | Substance | amyloid nucleation score
45 | VSLWVIKASRVNPFYSPGGK | 0.301 ± 0.64
46 | SHYTMALSRDIGYGDITKSD | -0.675 ± 1.1
47 | CCRNLRDRLNW | inactive
48 | SPVVADQPWCSI | 0.321 ± 0.64
49 | TSGFSIIRVIVNYIYALETR | 3.86 ± 0.12
50 | KEPGERRYGTAASMNYTKVD | -0.71 ± 1
51 | RKDLEVLNGLRICMVGSAPV | -0.055 ± 1.1
52 | GLLGKTASTYAVRVWGIGVG | 1.03 ± 0.2
53 | KSSVELWTFERA | 1.14 ± 0.33
54 | MAHWSSSNSTVVLGCLAWML | 6.17 ± 0.081
55 | LRAVWATVIVSVAMSVSCPK | 5.07 ± 0.07
56 | NDHSVHINYLIIGAIHNTVN | 8.405 ± 0.065
57 | FVSFSSLTKTLWYRRRRMVR | -1.06 ± 1.1
58 | SNAVLWNTGIFIKKYC | -1.38 ± 0.64
59 | SFHIVKDYNSDMYYFFNELV | inactive
60 | AISRRALKTHHFKWGCNVG | 0.266 ± 0.19
61 | WNLYSLSN | inactive
62 | SDRMELWKNESRLYIGMAVR | 0.451 ± 0.49
63 | SMTVKDSGFMSIFGFSTVRL | -0.854 ± 0.48
64 | WKTWSPKYWGSFVR | -0.283 ± 0.46
65 | YRFKIMCLVSPHFV | 0.736 ± 0.6
66 | GCGGAHY | -0.633 ± 0.29

Row | Substance | amyloid nucleation score
67 | WLLILLDISTSDFLQCWIGM | -0.037 ± 0.65
68 | MATDDIN | -0.359 ± 0.79
69 | PGLPEERHNCKTYCHRTSRP | 0.016 ± 0.34
70 | LFDVMIQTRCLYHWNSPHNL | 5.14 ± 0.065
71 | DFWFSGDFK | -0.778 ± 0.44
72 | RFTALADGYRFTLSLGIVSG | 2.28 ± 0.12
73 | GVCFSFVFM | 8.487 ± 0.064
74 | ITFKISNGVWYLPKRL | 6.629 ± 0.038
75 | LLLHWRSWMRKCHVITCWSS | 0.436 ± 0.35
76 | FYSAVYMLFIVMWFGYSLIN | inactive
77 | WQGEPHPIHFMLSFVLMGW | 0.957 ± 0.21
78 | FLKCNLTVDLIVMMKNIFSY | 1.02 ± 0.39
79 | RQVGNHSTYGLFNVQTRLRL | 2.52 ± 0.079
80 | LMSKKGNGIGLEQPLLSSDT | -0.778 ± 1.1
81 | GNHSAVAPS | -0.677 ± 0.38
82 | KFMCSELSNFCINCILRLVV | -0.19 ± 1.1
83 | HCKSDPWLEPTSVWVFIRLV | 0.818 ± 0.23
84 | DSGRCFSFKWFCYFQHHHEV | 2.18 ± 0.17
85 | TLSVGVQL | -0.624 ± 0.63
86 | NEFIEVALSLYRVNCQRNFI | -1.5 ± 0.53
